# Reference: US20230331820A1 (GlaxoSmithKline, published 2023)
# Like-named read-outs stand apart in the source and are kept apart here.
# Tests used:
# [1] = target: gEgI mutant (P319D): HSV2 gEgI mutant heterodimer comprising gE and gI ectodomains with mutation P319D in gE (HSV2, UniProt P89475 21-416; P06764 21-256); assay: ELISA, supernatant
# [2] = target: gEgI mutant (R320D): HSV2 gEgI mutant heterodimer comprising gE and gI ectodomains with mutation R320D in gE (HSV2, UniProt P89475 21-416; P06764 21-256); assay: ELISA, supernatant
# [3] = target: gEgI mutant (P317R): HSV2 gEgI mutant heterodimer comprising gE and gI ectodomains with mutation P317R in gE (HSV2, UniProt P89475 21-416; P06764 21-256); assay: ELISA, supernatant
# [4] = target: T1, gEgI WT: HSV2 gEgI heterodimer comprising gE and gI wildtype ectodomains (HSV2, UniProt P89475 21-416; P06764 21-256); assay: ELISA, supernatant
# [5] = target: T2, gE WT: HSV2 gE wildtype ectodomain (HSV2, UniProt P89475 21-416); assay: ELISA, supernatant
# [6] = target: gEgI mutant (338): HSV2 gEgI mutant heterodimer comprising gE and gI ectodomains with insertion of a (HSV2, UniProt P89475 21-416; P06764 21-256); assay: ELISA, supernatant
# [7] = target: T3, gI WT: HSV2 gI wildtype ectodomain (HSV2, UniProt P06764 21-256); assay: ELISA, supernatant
# [8] = target: T1, gEgI WT: HSV2 gEgI heterodimer …; assay: SPR binning; gEgI captured by mAb 5
# [9] = target: T1, gEgI WT: HSV2 gEgI heterodimer …; assay: SPR binning; gEgI captured by mAb 9
# [10] = target: T1, gEgI WT: HSV2 gEgI heterodimer …; assay: SPR binning; gEgI captured by mAb 20
# [11] = target: T1, gEgI WT: HSV2 gEgI heterodimer …; assay: SPR binning; gEgI captured by mAb 42
# [12] = target: T1, gEgI WT: HSV2 gEgI heterodimer …; assay: SPR binning; gEgI captured by mAb 17
# [13] = target: T1, gEgI WT: HSV2 gEgI heterodimer …; assay: SPR binning; gEgI captured by mAb 10
# [14] = target: T1, gEgI WT: HSV2 gEgI heterodimer …; assay: SPR binning; gEgI captured by mAb 45
# [15] = target: T1, gEgI WT: HSV2 gEgI heterodimer …; assay: SPR binning; gEgI captured by mAb 39
# [16] = target: T1, gEgI WT: HSV2 gEgI heterodimer …; assay: SPR binning; gEgI captured by mAb 40
# [17] = target: T1, gEgI WT: HSV2 gEgI heterodimer …; assay: SPR binning; gEgI captured by mAb 19
# [18] = target: T1, gEgI WT: HSV2 gEgI heterodimer …; assay: SPR binning; gEgI captured by mAb 15
# [19] = target: T1, gEgI WT: HSV2 gEgI heterodimer …; assay: SPR binning; gEgI captured by mAb 34
# [20] = target: T1, gEgI WT: HSV2 gEgI heterodimer …; assay: SPR binning; gEgI captured by mAb 24
# [21] = target: T2, gE WT: HSV2 gE wildtype ectodomain; assay: ELISA, supernatant; remark: listed apart in the source
# [22] = target: T3, gI WT: HSV2 gI wildtype ectodomain; assay: ELISA, supernatant; remark: listed apart in the source
# [23] = target: T1, gEgI WT: HSV2 gEgI heterodimer …; assay: Biacore SPR, gEgI CHO BMP1181 at 10 µg/ml for 180 s over the mAb
# [24] = target: T1, gEgI WT: HSV2 gEgI heterodimer …; assay: Biacore SPR, gEgI HEK BMP1063 at 10 µg/ml for 180 s over the mAb
Binder,binding result [1],binding result [2],binding result [3],binding result [4],binding result [5],binding result [6],binding result [7],RU [8],RU [9],RU [10],RU [11],RU [12],RU [13],RU [14],RU [15],RU [16],RU [17],RU [18],RU [19],RU [20],further results
"mAb clone 43 (antibody, V domains shown, also called GEGI/43IIa) VH: DVKLVESGGGLVKPGGSLKLSCAASGFTFSSYTMSWVRQTPEKRLEWVATISSGGSYTYYPDSVKGRFTISRDNAKNTLYLQMSSLKAEDTAMYYCTRGGYGSSFENYFDYWGQGTTLTVSS VL: DIVMSQSPSSLAVSAGEKVTMSCKSSQSLLNSRTRKNYLAWYQQKPGQSPKLLIYWASTRESGVPDRFTGSGSGTDFTLTISSVQAEDLAVYSCKQSYNLPLTFGAGTKLELK",binds,binds,binds,binds,binds,binds,no binding,–,–,–,–,–,–,–,–,–,–,–,–,–,–
"mAb clone 39 (antibody, V domains shown) VH: EVKLVESGGGLVQPGGSLKLSCAASGFTFSSYTMSWVRQTPEKRLEWVAYISNGGGSTYYPDTVKGRFTISRDNAKNTLYLQMSSLKSEDTAMYYCARGVSYYGDLYYFDYWGQGTTLTVSS VL: DVVVTQTPLSLPVSFGDQVSISCRSSQSLANSYGNTYLSWYLHKPGQSPQLLIYGISNRFSGVPDRFSGSGSGTDFTLKISTIKPEDLGMYYCLQGTHQPWTFGGGTKLEIK",–,–,–,–,–,binds,no binding,0.6 RU,-1.5 RU,3.1 RU,0.1 RU,-0.6 RU,2.3 RU,-5.4 RU,1.3 RU,-1.2 RU,-7.2 RU,-4.8 RU,-6.4 RU,-0.9 RU,binding result [21]: no binding
"mAb clone 35, 36 (antibody, V domains shown) VH: QVQLKESGPGLVAPSQSLSITCTVSGFSLTSYGVHWVRQPPGKGLEWLGVIWAGGSTNYNSALMSRLSISKDNSKSQVFLKMNSLQTDDTAMYYCATDGYKFFYYAMDYWGQGTSVTVSS VL: DIVMTQAAPSVPVTPGESVSISCRSSKSLLHSNGNTYLYWFLQRPGQSPQLLIYRMSNLASGVPDRFSGSGSGTAFTLRISRVEAEDVGVYYCMQHLEYPFTFGSGTKLEIK",binds,binds,binds,binds,binds,binds,–,–,–,–,–,–,–,–,–,–,–,–,–,–,binding result [22]: binds
"mAb clone 14 (antibody, V domains shown, also called GEGI/14IIa) VH: QVQLQQSGAELMKPGASVKISCKATGYTFSSYWIEWVKQRPGHGLEWIGEILPGSGSTNYNEKFKGKATFTADTSSNTAYMQLSSLTSEDSAVYYCASGSAGNYYGSSYEAMDYWGQGTSVTVSS VL: DIVLTQSPASLAVSLGQRATISCRASKSVSTSGYSYMHWYQQKPGQPPKLLIYLASNLESGVPARFSGSGSGTDFTLNIHPVEEEDAATYYCQHSRELPLTFGAGTKLELK",binds,binds,binds,binds,binds,binds,no binding,–,–,–,–,–,–,–,–,–,–,–,–,–,–
"mAb clone 47 (antibody, V domains shown) VH: EVKLVESGGGLVQPGGSLRLSCATSGFTFTDYYMSWVRQPPGKALEWLGFIRNKANGYTTEYSASVKGRFTISRDNSQSILYLQMNTLRAEDSATYYCARDRPGFDYWGQGTTLTVSS VL: NIVLTQSPASLAVSLGQRATISCRASESVDSFGNSFMHWYQQKPGQPPKLLIYLASNLESGVPARFSGSGSRTDFTLTIDPVEADDAATYYCQQNNEDPPWTFGGGTKLEIK",no binding,no binding,no binding,binds,binds,no binding,no binding,–,–,–,–,–,–,–,–,–,–,–,–,–,–
"mAb clone 19 (antibody, V domains shown) VH: QVQLQQSGAELVRPGVSVKISCKGSGYTFTDYAMHWVKQSHAKSLEWIGVISTYYGDARYNQKFKGKATMTVDKSSSTAYMELARLTSEDSAIYYCARRGITVVADYAMDYWGQGTSVTVSS VL: QIVLTQSPAIMSASPGEKVTMSCSASSSVTYMHWYQQKSGTSPKRWIYDTSKLASGVPARFSGSGSGTSYSLTISSMEAEDAATYYCQQWSSNPPTFGGGTKLEIK",–,–,–,–,no binding,binds,–,17.2 RU,6.4 RU,9 RU,16.3 RU,18.1 RU,24.4 RU,9.2 RU,16.2 RU,13.9 RU,-3.4 RU,23 RU,9.3 RU,3.2 RU,RU Ag/250 RU mAbs [23]: 6.49 RU Ag/250 RU mAbs; binding result [22]: no binding; RU Ag/250 RU mAbs [24]: 7.88 RU Ag/250 RU mAbs
"mAb clone 44 (antibody, V domains shown) VH: EVQLQQSGPELEKPGASVKISCKASGYSFTGYNMNWVKQSNGKSLEWIGNIDPYYGGIRYNQKFKGKATLTVDKSSSTAYMQLKSLTSEDSAVYYCAREDRYLVHYYAMDYWGQGTSVTVSS VL: QIVLTQSPAIMSASPGEKVTMTCSASSSISYMHWYQQKPGTSPKRWIYDTSKLASGVPARFSGSGSGTSYSLTISSMEAEDAATYYCHQRSSYPYTFGGGTKLEIK",binds,binds,binds,binds,binds,binds,–,–,–,–,–,–,–,–,–,–,–,–,–,–,binding result [22]: binds
"mAb clone 34 (antibody, V domains shown) VH: EVKLVESGGGLVQPGGSLKLSCATSGFTFSDYYMYWVRQTPEKRLEWVAYISNGGDSTYYPDTVKGRFTISRDNAKNTLYLQMSRLKSEDTAMYYCARSYYGNPFPYWGQGTLVTVSA VL: ENVLTQSPAIMSASPGEKVTMTCRASSSVSSSYLHWYQQKSGASPKLWIYSTSNLASGVPARFSGSGSGTSYSLTISSVEAEDAATYYCQQYSGYPLTFGAGTKLELK",–,–,–,–,no binding,binds,no binding,-2.1 RU,-3.9 RU,0.4 RU,-2.4 RU,-3.3 RU,1.3 RU,-6.3 RU,-1.5 RU,-4.1 RU,-8.4 RU,-2.7 RU,-11.1 RU,-3.6 RU,RU Ag/250 RU mAbs [23]: 12.8 RU Ag/250 RU mAbs; RU Ag/250 RU mAbs [24]: 14.4 RU Ag/250 RU mAbs
